Laboratory results published in publication doi:10.1101/2022.04.02.486817.

Columns and labels:
GST-TGN38 = GST-TGN38 (UniProt P19814); assay: BLI
AP2 α-appendage = AP2 α-appendage (UniProt P17427); assay: ITC
Cμ2 = Cμ2 (UniProt P84092); assay: ITC
Chain of Cμ2 (P84092 158-435): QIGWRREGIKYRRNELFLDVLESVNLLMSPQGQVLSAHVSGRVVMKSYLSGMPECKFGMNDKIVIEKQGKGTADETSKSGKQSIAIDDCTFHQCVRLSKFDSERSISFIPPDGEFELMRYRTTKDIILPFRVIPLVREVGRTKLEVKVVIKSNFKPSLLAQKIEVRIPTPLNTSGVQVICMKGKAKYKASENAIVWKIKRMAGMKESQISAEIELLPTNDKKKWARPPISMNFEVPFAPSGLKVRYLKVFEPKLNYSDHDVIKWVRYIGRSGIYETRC

Chain of AP2 α-appendage (P17427 702-938): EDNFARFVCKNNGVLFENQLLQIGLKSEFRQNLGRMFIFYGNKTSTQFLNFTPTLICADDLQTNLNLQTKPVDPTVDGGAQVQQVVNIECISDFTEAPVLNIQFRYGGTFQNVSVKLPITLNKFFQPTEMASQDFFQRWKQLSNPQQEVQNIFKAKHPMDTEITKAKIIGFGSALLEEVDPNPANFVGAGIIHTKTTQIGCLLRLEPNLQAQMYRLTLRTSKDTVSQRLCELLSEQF
Chain of AP2:β2FCHO2-N3+C (P62743 whole entry, looked up, tested part not stated): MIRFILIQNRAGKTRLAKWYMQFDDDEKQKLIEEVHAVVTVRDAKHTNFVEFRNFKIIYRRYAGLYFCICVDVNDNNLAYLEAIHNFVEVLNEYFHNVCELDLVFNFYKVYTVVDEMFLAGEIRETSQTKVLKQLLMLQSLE
Chain of AP2:β2FCHO2-N3+C (P84092 whole entry, looked up, tested part not stated): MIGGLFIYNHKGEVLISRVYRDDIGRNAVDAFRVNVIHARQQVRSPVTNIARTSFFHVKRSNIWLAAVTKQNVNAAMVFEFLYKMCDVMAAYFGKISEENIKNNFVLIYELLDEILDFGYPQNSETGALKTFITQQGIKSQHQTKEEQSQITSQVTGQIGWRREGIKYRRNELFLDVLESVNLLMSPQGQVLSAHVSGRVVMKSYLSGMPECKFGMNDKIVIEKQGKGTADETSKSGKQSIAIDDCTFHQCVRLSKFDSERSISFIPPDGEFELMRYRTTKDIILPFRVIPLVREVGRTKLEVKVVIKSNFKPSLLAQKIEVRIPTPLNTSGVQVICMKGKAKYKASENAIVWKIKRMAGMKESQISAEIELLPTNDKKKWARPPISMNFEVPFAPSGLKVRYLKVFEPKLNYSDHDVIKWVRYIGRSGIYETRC
Chain of AP2:β2FCHO2-N3+C (P18484 whole entry, looked up, tested part not stated): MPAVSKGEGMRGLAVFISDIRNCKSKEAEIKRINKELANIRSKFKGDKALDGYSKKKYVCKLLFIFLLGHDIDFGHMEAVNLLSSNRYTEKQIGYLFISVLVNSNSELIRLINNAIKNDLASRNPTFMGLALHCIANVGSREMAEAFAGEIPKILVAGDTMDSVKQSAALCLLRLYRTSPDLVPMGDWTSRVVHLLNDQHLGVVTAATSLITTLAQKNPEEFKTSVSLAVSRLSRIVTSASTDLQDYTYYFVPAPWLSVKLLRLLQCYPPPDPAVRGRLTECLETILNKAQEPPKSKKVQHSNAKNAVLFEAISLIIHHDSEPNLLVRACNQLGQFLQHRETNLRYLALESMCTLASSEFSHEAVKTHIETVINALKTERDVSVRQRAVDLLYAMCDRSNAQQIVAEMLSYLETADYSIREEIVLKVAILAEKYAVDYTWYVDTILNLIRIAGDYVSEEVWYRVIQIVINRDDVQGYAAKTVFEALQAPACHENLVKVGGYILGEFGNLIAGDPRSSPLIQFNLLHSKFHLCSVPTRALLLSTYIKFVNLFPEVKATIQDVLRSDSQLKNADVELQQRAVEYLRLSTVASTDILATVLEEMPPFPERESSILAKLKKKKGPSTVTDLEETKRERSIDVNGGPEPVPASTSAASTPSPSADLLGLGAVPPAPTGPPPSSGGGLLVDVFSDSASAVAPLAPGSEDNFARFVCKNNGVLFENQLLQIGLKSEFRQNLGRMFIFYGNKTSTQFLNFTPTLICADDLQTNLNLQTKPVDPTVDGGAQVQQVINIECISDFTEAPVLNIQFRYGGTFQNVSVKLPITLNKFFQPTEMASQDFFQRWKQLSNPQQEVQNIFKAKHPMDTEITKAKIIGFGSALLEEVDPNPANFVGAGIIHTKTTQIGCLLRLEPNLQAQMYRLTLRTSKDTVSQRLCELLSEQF
Chain of GST-TGN38 (P19814 325-357): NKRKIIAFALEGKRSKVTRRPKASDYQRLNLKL

Kd (AP2 α-appendage) | Substance | further results
 | AP2:β2FCHO2-N3+C (from UniProt P18484 1-938; P84092 1-435; P62743 1-142) (complex) | fold tighter binding than AP2 core (GST-TGN38): 3 fold
> 500 µM | FCHO1 C block FGtoAA (from UniProt O14526 427-448) (peptide) | 
> 500 µM | FCHO1 C block LEStoAAA (from UniProt O14526 427-448) (peptide) | 
> 500 µM | FCHO1 C block PPtoGG (from UniProt O14526 427-448) (peptide) | 
 | FCHO2 N1+N2 E320A+E321A+K326A (domain or fragment) | fold reduction of binding against the wild type (Cμ2): 5 fold
